Telomerase activity (TRAP method) in dephosphorylated HEK293 cell nuclear extract after phosphorylation reaction, intracellular telomerase activity (TRAP method) in HEK293T cells against the negative control vector and intracellular telomerase activity (TRAP method) in HEK293T cells data for 3 substances are collected here from patent US20070105796A1.

This assay concerns the target TERT (telomerase reverse transcriptase), catalytic subunit of telomerase (human) (UniProt O14746). Briefly: cell-based or functional assay.

Sequence of TERT (telomerase reverse transcriptase), catalytic subunit of telomerase (human) (O14746 whole entry): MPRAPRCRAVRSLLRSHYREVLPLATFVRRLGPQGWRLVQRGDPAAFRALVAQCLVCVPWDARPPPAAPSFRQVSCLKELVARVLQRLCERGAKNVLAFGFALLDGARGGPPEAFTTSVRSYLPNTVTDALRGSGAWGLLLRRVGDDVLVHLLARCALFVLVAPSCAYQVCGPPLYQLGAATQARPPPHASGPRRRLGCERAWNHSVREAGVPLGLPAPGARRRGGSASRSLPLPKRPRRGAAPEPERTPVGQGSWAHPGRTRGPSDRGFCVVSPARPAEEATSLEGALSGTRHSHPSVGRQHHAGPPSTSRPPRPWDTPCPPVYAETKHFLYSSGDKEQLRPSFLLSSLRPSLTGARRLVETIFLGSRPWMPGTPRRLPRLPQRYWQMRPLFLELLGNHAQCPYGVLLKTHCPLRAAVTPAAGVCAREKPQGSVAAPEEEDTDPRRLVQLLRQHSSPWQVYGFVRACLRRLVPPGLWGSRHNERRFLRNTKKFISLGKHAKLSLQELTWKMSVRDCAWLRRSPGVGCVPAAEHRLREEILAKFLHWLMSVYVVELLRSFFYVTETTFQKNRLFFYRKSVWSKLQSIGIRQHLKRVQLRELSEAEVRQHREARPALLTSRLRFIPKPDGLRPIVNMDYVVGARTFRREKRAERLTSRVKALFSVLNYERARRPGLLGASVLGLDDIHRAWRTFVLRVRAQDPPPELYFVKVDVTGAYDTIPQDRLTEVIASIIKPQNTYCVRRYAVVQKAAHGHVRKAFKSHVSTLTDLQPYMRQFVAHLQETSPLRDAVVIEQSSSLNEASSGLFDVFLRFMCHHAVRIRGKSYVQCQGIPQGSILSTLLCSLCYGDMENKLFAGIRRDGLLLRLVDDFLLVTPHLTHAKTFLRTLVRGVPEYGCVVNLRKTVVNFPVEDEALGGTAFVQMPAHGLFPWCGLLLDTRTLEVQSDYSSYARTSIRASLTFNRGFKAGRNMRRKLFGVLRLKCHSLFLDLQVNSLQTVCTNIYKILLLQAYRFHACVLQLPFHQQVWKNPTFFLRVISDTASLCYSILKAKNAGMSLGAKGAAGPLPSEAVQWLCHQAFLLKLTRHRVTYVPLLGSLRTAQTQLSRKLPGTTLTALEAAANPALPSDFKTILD

In turn, “GST fusion active MAPKAPK3 (T201E/T313E) (from UniProt Q16644 1-382) (enzyme)” yielded a telomerase activity (TRAP method) in dephosphorylated HEK293 cell nuclear extract after phosphorylation reaction of 1.5 fold.
Substance “N-terminal HA-tagged active MAPKAPK3 (T201E/T313E) (from UniProt Q16644 1-382) (enzyme)” came in with an intracellular telomerase activity (TRAP method) in HEK293T cells against the negative control vector of 1.4 fold.
The substance “N-terminal HA-tagged inactive MAPKAPK3 (T201A/T313A) (from UniProt Q16644 1-382) (enzyme)” registered an intracellular telomerase activity (TRAP method) in HEK293T cells of 0.7 fold.
